Assay results reported in the supplement of paper PMC5998384.

Columns and labels:
HeLa Kyoto [1] = experiment: thermal stability score vs G1/S (z-score of summed log2 fold changes over temperatures); higher = more thermally stable than in G1/S
HeLa Kyoto [2] = experiment: melting temperature (median over replicates), in situ; higher = more thermally stable
HeLa Kyoto [3] = experiment: solubility in G1/S (NP-40 vs SDS abundance) (log2 ratio); higher = more soluble; conditions: cell cycle stage: G1/S
HeLa Kyoto [4] = experiment: solubility change mitosis vs G1/S (difference of NP-40 vs SDS log2 ratios) (log2 ratio difference); higher = more soluble in mitosis
[5] = cell cycle stage: early G1 (4.5 h after nocodazole release)
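For melting temperature (median over replicates), in situ in this document: HeLa Kyoto cells synchronized by double thymidine or nocodazole block, proteins quantified by TMT10plex mass spectrometry, three independent biological replicates.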
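For solubility change mitosis vs G1/S (difference of NP-40 vs SDS log2 ratios) in this document: synchronized HeLa Kyoto cells (double thymidine block for G1/S, nocodazole release for mitosis), protein amounts in NP-40 versus SDS lysates quantified by mass spectrometry, three biological replicates.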
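For solubility in G1/S (NP-40 vs SDS abundance) in this document: HeLa Kyoto cells arrested at G1/S by double thymidine block, proteins quantified by TMT10plex mass spectrometry in mild NP-40 versus SDS extracts, three biological replicates.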
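For thermal stability score vs G1/S (z-score of summed log2 fold changes over temperatures) in this document: synchronized HeLa Kyoto cells, proteins quantified by TMT10plex mass spectrometry, three biological replicates, mitosis taken 0.5 h after nocodazole release, G1/S directly after double thymidine block.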

Sequence of YBX3 (chain, as listed by the source): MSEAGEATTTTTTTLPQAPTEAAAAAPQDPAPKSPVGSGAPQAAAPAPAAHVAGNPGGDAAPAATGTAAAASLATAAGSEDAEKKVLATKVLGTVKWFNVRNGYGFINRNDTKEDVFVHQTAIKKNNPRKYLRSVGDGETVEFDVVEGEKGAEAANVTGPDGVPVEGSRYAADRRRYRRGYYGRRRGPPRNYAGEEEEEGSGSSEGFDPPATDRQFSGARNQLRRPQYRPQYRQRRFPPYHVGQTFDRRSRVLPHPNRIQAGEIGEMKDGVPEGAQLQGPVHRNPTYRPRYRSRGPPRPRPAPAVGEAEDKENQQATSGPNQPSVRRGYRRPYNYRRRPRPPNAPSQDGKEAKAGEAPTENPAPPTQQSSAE

Substance | thermal stability score (HeLa Kyoto [1]; [5]) | thermal stability score (HeLa Kyoto [1]; cell cycle stage: mitosis) | melting temperature (HeLa Kyoto [2]; cell cycle stage: G1/S) | melting temperature (HeLa Kyoto [2]; cell cycle stage: mitosis) | solubility in G1/S (log2) (HeLa Kyoto [3]) | solubility change mitosis (log2) (HeLa Kyoto [4])
MEPPYSLTAHYDEFQEVKYVSRCGAGGARGASLPPGFPLGAARSATGARSGLPRWNRREVCLLSGLVFAAGLCAILAAMLALKYLGPVAAGGGACPEGCPERKAFARAARFLAANLDASIDPCQDFYSFACGGWLRRHAIPDDKLTYGTIAAIGEQNEERLRRLLARPGGGPGGAAQRKVRAFFRSCLDMREIERLGPRPMLEVIEDCGGWDLGGAEERPGVAARWDLNRLLYKAQGVYSAAALFSLTVSLDDRNSSRYVIRIDQDGLTLPERTLYLAQDEDSEKILAAYRVFMERVLSLLGADAVEQKAQEILQVEQQLANITVSEHDDLRRDVSSMYNKVTLGQLQKITPHLRWKWLLDQIFQEDFSEEEEVVLLATDYMQQVSQLIRSTPHRVLHNYLVWRVVVVLSEHLSPPFREALHELAQEMEGSDKPQELARVCLGQANRHFGMALGALFVHEHFSAASKAKVQQLVEDIKYILGQRLEELDWMDAETRAAARAKLQYMMVMVGYPDFLLKPDAVDKEYEFEVHEKTYFKNILNSIRFSIQLSVKKIRQEVDKSTWLLPPQALNAYYLPNKNQMVFPAGILQPTLYDPDFPQSLNYGGIGTIIGHELTHGYDDWGGQYDRSGNLLHWWTEASYSRFLRKAECIVRLYDNFTVYNQRVNGKHTLGENIADMGGLKLAYHAYQKWVREHGPEHPLPRLKYTHDQLFFIAFAQNWCIKRRSQSIYLQVLTDKHAPEHYRVLGSVSQFEEFGRAFHCPKDSPMNPAHKCSVW [ECEL1] | 0.162 | 2.03 | 52.9 °C | 52.1 °C | -0.0684 | -0.124
MKEPLLGGECDKAVASQLGLLDEIKTEPDNAQEYCHRQQSRTQENELKINAVFSESASQLTAGIQLSLASSGVNKMLPSVSTTAIQVSCAGCKKILQKGQTAYQRKGSAQLFCSIPCITEYISSASSPVPSKRTCSNCSKDILNPKDVISVQLEDTTSCKTFCSLSCLSSYEEKRKPFVTICTNSILTKCSMCQKTAIIQYEVKYQNVKHNLCSNACLSKFHSANNFIMNCCENCGTYCYTSSSLSHILQMEGQSHYFNSSKSITAYKQKPAKPLISVPCKPLKPSDEMIETTSDLGKTELFCSINCFSAYSKAKMESSSVSVVSVVHDTSTELLSPKKDTTPVISNIVSLADTDVALPIMNTDVLQDTVSSVTATADVIVDLSKSSPSEPSNAVASSSTEQPSVSPSSSVFSQHAIGSSTEVQKDNMKSMKISDELCHPKCTSKVQKVKGKSRSIKKSCCADFECLENSKKDVAFCYSCQLFCQKYFSCGRESFATHGTSNWKKTLEKFRKHEKSEMHLKSLEFWREYQFCDGAVSDDLSIHSKQIEGNKKYLKLIIENILFLGKQCLPLRGNDQSVSSVNKGNFLELLEMRAKDKGEETFRLMNSQVDFYNSTQIQSDIIEIIKTEMLQDIVNEINDSSAFSIICDETINSAMKEQLSICVRYPQKSSKAILIKERFLGFVDTEEMTGTHLHRTIKTYLQQIGVDMDKIHGQAYDSTTNLKIKFNKIAAEFKKEEPRALYIHCYAHFLDLSIIRFCKEVKELRSALKTLSSLFNTICMSGEMLANFRNIYRLSQNKTCKKHISQSCWTVHDRTLLSVIDSLPEIIETLEVIASHSSNTSFADELSHLLTLVSKFEFVFCLKFLYRVLSVTGILSKELQNKTIDIFSLSSKIEAILECLSSERNDVYFKTIWDGTEEICQKITCKGFKVEKPSLQKRRKIQKSVDLGNSDNMFFPTSTEEQYKINIYYQGLDTILQNLKLCFSEFDYCKIKQISELLFKWNEPLNETTAKHVQEFYKLDEDIIPELRFYRHYAKLNFVIDDSCINFVSLGCLFIQHGLHSNIPCLSKLLYIALSWPITSASTENSFSTLPRLKTYLCNTMGQEKLTGPALMAVEQELVNKLMEPERLNEIVEKFISQMKEI [ZMYM1] | 0.329 | 0.818 |  | 50.4 °C | -0.155 | -0.06
USP16 | -0.114 | 0.382 | 50.4 °C | 49.5 °C | -0.321 | 0.122
MAAGTSSYWEDLRKQARQLENELDLKLVSFSKLCTSYSHSSTRDGRRDRYSSDTTPLLNGSSQDRMFETMAIEIEQLLARLTGVNDKMAEYTNSAGVPSLNAALMHTLQRHRDILQDYTHEFHKTKANFMAIRERENLMGSVRKDIESYKSGSGVNNRRTELFLKEHDHLRNSDRLIEETISIAMATKENMTSQRGMLKSIHSKMNTLANRFPAVNSLIQRINLRKRRDSLILGGVIGICTILLLLYAFH [GOSR1] | -0.21 | -0.667 | 54.7 °C | 52 °C | 0.28 | 0.02
MASSRASSTQATKTKAPDDLVAPVVKKPHIYYGSLEEKERERLAKGESGILGKDGLKAGIEAGNINITSGEVFEIEEHISERQAEVLAEFERRKRARQINVSTDDSEVKACLRALGEPITLFGEGPAERRERLRNILSVVGTDALKKTKKDDEKSKKSKEEYQQTWYHEGPNSLKVARLWIANYSLPRAMKRLEEARLHKEIPETTRTSQMQELHKSLRSLNNFCSQIGDDRPISYCHFSPNSKMLATACWSGLCKLWSVPDCNLLHTLRGHNTNVGAIVFHPKSTVSLDPKDVNLASCAADGSVKLWSLDSDEPVADIEGHTVRVARVMWHPSGRFLGTTCYDRSWRLWDLEAQEEILHQEGHSMGVYDIAFHQDGSLAGTGGLDAFGRVWDLRTGRCIMFLEGHLKEIYGINFSPNGYHIATGSGDNTCKVWDLRQRRCVYTIPAHQNLVTGVKFEPIHGNFLLTGAYDNTAKIWTHPGWSPLKTLAGHEGKVMGLDISSDGQLIATCSYDRTFKLWMAE [PRPF4] | -0.546 | -0.96 | 49.9 °C | 49.5 °C | -0.454 | 0.223
RAP1GAP2 | 0.21 | 0.699 | 50.3 °C | 50.3 °C | 0.164 | 0.327
MGCFFSKRRKADKESRPENEEERPKQYSWDQREKVDPKDYMFSGLKDETVGRLPGTVAGQQFLIQDCENCNIYIFDHSATVTIDDCTNCIIFLGPVKGSVFFRNCRDCKCTLACQQFRVRDCRKLEVFLCCATQPIIESSSNIKFGCFQWYYPELAFQFKDAGLSIFNNTWSNIHDFTPVSGELNWSLLPEDAVVQDYVPIPTTEELKAVRVSTEANRSIVPISRGQRQKSSDESCLVVLFAGDYTIANARKLIDEMVGKGFFLVQTKEVSMKAEDAQRVFREKAPDFLPLLNKGPVIALEFNGDGAVEVCQLIVNEIFNGTKMFVSESKETASGDVDSFYNFADIQMGI [RP2] | -0.738 | -0.982 | 51.6 °C | 51.1 °C | -0.343 | -0.158
YBX3 | -3.49 | -8.21 | 54 °C | 53.8 °C | 0.366 | -0.0607
MSAPFEERSGVVPCGTPWGQWYQTLEEVFIEVQVPPGTRAQDIQCGLQSRHVALSVGGREILKGKLFDSTIADEGTWTLEDRKMVRIVLTKTKRDAANCWTSLLESEYAADPWVQDQMQRKLTLERFQKENPGFDFSGAEISGNYTKGGPDFSNLEK [NUDCD2] | 1.01 | 2.41 | 47.7 °C | 49.5 °C | 0.372 | 0.035
MAVKKIAIFGATGQTGLTTLAQAVQAGYEVTVLVRDSSRLPSEGPRPAHVVVGDVLQAADVDKTVAGQDAVIVLLGTRNDLSPTTVMSEGARNIVAAMKAHGVDKVVACTSAFLLWDPTKVPPRLQAVTDDHIRMHKVLRESGLKYVAVMPPHIGDQPLTGAYTVTLDGRGPSRVISKHDLGHFMLRCLTTDEYDGHSTYPSHQYQ [BLVRB] | 4.14 | 2.47 | 50.4 °C | 50.7 °C | 0.417 | -0.116
